Experimental data: patent US20110124572A1 (published 2011)

Target: small GTPase Rac1 (UniProt P63000 1-189)
Assay: immunoprecipitation with Tiam-1 antiserum from MCF-7 line lysates, blot with anti-Rac1
Method: In brief, 70% confluent cultures of 25 mL flask were detached, pelleted and following 2 times washing with PBS. The pellet were lysed in RIPA buffer then centrifuged and the supernatant was pre-cleared by addition of 5 μL of protein A/G-sepharose beads slurry (Pierce) for 2 hours, then the supernatant was incubated with the antibody of interest for 24 hours. 10 μL of protein A/G slurry was added for 2 hours, collected by pulse centrifugation, washed 3 times with lysis buffer, resuspended in 2×SDS loading buffer subjected to SDS-PAGE, followed by immunoblotting with the appropriate antibodies.

B1: Tiam-1, Rac1-specific guanine nucleotide exchange factor (RacGEF) (enzyme)
chain: GNAESQHVEHEFYGEKHASLGRKHTSRSLRLSHKTRRTRHASSGKVIHRNSEVSTRSSSTPSIPQSLAENGLEPFSQDGTLEDFGSPIWVDRVDMGLRPVSYTDSSVTPSVDSSIVLTAASVQSMPDTEESRLYGDDATYLAEGGRRQHSYTSNGPTFMETASFKKKRSKSADIWREDSLEFSLSDLSQEHLTSNEEILGSAEEKDCEEARGMETRASPRQLSTCQRANSLGDLYAQKNSGVTANGGPGSKFAGYCRNLVSDIPNLANHKMPPAAAEETPPYSNYNTLPCRKSHCLSEGATNPQISHSNSMQGRRAKTTQDVNAGEGSEFADSGIEGATTDTDLLSRRSNATNSSYSPTTGRAFVGSDSGSSSTGDAARQGVYENFRRELEMSTTNSESLEEAGSAHSDEQSSGTLSSPGQSDILLTAAQGTVRKAGALAVKNFLVHKKNKKVESATRRKWKHYWVSLKGCTLFFYESDGRSGIDHNSIPKHAVWVENSIVQAVPEHPKKDFVFCLSNSLGDAFLFQTTSQTELENWITAIHSACATAVARHHHKEDTLRLLKSEIKKLEQKIDMDEKMKKMGEMQLSSVTDSKKKKTILDQIFVWEQNLEQFQMDLFRFRCYLASLQGGELPNPKRLLAFASRPTKVAMGRLGIFSVSSFHALVAARTGETGVRRRTQAMSRSASKRRSRFSSLWGLDTTSKKKQGRPSINQVFGEGTEAVKKSLEGIFDDIVPDGKREKEVVLPNVHQHNPDCDIWVHEYFTPSWFCLPNNQPALTVVRPGDTARDTLELICKTHQLDHSAHYLRLKFLIENKMQLYVPQPEEDIYELLYKEIEICPKVTQSIHIEKSDTAADTYGFSLSSVEEDGIRRLYVNSVKETGLASKKGLKAGDEILEINNRAADALNSSMLKDFLSQPSLGLLVRTYPELEEGVELLESPPHRVDGPADLGESPLAFLTSNPGHSLCSEQGSSAETAPEETEGPDLESSDETDHSSKSTEQVAAFCRSLHEMNPSDQSPSPQDSTGPQLATMRQLSDADKLRKVICELLETERTYVKDLNCLMERYLKPLQKETFLTQDELDVLFGNLTEMVEFQVEFLKTLEDGVRLVPDLEKLEKVDQFKKVLFSLGGSFLYYADRFKLYSAFCASHTKVPKVLVKAKTDTAFKAFLDAQNPKQQHSSTLESYLIKPIQRILKYPLLLRELFALTDAESEEHYHLDVAIKTMNKVASHINEMQKIHEEFGAVFDQLIAEQTGEKKEVADLSMGDLLLHTTVIWLNPPASLGKWKKEPELAAFVFKTAVVLVYKDGSKQKKKLVGSHRLSIYEDWDPFRFRHMIPTEALQVRALASADAEANAVCEIVHVKSESEGRPERVFHLCCSSPESRKDFLKAVHSILRDKHRRQLLKTESLPSSQQYVPFGGKRLCALKGARPAMSRAVSAPSKSLGRRRRRLARNRFTIDSDAVSASSPEKESQQPPGGGDTDRWVEEQFDLAQYEEQDDIKETDILSDDDEFCESVKGASVDRDLQERLQATSISQRERGRKTLDSHASRMAQLKKQAALSGINGGLESASEEVIWVRREDFAPSRKLNTEI
notes: Endogenous protein in MCF-7 cell lysate
B1: binds.
